These results are taken from patent publication EP4578463A1, “ENDO-180 TARGETED ANTIBODY-DRUG CONJUGATES” (Oncomatryx Biopharma, S.L., priority 2023, dated 2025).

The target of assay [1] is T1, human Endo180-His (aa: 31-513; comprising the first four N-terminal domains) (human, UniProt Q9UBG0 31-513).
T1 construct: In-house produced; also called huEndo; human Endo180-His molecule; not shown: His tag
T1 sequence: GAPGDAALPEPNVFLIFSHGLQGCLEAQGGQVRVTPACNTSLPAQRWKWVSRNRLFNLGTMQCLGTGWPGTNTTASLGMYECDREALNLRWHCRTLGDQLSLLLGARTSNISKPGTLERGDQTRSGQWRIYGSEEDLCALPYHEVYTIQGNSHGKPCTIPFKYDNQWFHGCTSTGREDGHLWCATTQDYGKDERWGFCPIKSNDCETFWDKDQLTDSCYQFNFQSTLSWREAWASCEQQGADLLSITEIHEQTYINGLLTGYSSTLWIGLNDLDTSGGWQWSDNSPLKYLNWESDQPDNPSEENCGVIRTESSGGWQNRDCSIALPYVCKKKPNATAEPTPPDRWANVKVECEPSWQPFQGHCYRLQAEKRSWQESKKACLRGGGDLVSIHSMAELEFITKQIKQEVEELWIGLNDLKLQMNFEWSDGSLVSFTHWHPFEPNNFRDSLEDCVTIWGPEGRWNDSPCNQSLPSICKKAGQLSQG
Briefly: ELISA, immobilized human Endo180-His.

The target in assay [2] is T2, Endo180 on cells (Endo180-expressing HT1080-WT cells; Endo180-transfected HEK293-Endo180 cells) (UniProt Q9UBG0 31-1479).
T2 construct: whole, on cells; One molecule is used for the endogenous protein on HT1080-WT and the transfected protein on HEK293-Endo180; also called uPARAP
T2 sequence (looked up): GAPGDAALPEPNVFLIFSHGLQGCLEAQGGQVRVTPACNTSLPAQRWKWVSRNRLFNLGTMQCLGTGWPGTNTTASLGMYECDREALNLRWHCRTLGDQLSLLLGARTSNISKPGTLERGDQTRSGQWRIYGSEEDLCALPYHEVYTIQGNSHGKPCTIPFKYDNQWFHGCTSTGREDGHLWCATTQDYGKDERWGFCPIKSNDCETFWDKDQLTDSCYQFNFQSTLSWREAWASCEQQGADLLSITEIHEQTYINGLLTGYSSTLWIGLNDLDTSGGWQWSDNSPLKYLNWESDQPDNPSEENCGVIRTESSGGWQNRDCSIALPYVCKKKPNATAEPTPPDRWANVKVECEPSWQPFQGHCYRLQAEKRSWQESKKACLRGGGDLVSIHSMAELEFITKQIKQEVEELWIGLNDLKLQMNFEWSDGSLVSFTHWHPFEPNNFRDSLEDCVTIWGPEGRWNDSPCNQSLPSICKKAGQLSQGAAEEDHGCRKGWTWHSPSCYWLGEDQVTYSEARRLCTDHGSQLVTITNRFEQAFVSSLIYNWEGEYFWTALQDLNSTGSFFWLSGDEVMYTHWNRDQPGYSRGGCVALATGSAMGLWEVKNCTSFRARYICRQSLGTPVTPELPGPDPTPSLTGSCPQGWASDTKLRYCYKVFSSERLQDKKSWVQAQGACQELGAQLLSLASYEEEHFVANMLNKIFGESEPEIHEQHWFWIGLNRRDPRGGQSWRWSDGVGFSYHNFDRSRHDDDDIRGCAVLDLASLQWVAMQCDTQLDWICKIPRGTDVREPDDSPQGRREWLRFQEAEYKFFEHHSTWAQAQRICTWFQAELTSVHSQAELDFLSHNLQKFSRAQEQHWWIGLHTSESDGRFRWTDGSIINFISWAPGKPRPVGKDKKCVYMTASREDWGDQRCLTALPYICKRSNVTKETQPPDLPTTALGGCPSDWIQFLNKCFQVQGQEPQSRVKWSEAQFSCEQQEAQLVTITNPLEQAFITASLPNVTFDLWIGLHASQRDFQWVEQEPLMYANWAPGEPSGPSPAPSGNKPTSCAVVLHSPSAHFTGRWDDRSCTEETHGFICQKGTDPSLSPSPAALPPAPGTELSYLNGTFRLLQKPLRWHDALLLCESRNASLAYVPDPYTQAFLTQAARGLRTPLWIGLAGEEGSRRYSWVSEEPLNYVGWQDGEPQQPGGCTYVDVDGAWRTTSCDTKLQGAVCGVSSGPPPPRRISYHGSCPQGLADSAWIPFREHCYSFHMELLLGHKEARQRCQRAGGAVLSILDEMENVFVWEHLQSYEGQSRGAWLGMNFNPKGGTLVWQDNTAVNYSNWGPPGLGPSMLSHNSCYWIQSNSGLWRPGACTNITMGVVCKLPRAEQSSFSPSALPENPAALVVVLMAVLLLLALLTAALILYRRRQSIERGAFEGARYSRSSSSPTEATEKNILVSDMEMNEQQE
Description: flow cytometry on HT1080-WT cells.

Assay [3] addresses T2, Endo180 on cells (Endo180-expressing …). Briefly: flow cytometry on HEK293-Endo180 cells.
Assay [4] has as its target T3, human Endo180-moFc domain I (aa 31-173) (human, UniProt Q9UBG0 31-173).
T3 construct: also called huEndo180-moFc DI; not shown: murine Fc domain
T3 sequence: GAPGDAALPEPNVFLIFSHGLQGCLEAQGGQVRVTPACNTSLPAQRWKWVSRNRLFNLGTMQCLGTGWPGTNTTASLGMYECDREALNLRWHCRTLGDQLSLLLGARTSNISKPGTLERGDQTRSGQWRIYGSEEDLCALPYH
Description: ELISA, immobilized human Endo180-moFc domains.

The target of assay [5] is T4, human Endo180-moFc domains I-II (aa 31-232) (human, UniProt Q9UBG0 31-232).
T4 construct: also called huEndo180-moFc DI-II; not shown: murine Fc domain
T4 sequence: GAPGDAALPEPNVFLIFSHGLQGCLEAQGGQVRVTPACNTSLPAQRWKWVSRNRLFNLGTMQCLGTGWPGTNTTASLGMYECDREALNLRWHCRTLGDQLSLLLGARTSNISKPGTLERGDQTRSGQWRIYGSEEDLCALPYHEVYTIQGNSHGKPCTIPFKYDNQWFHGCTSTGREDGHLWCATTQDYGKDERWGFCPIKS
Briefly: ELISA, immobilized human Endo180-moFc domains.

Assay [6] concerns the target T5, human Endo180-moFc domains I-IV (aa 31-513) (human, UniProt Q9UBG0 31-513).
T5 construct: also called huEndo180 (DI-IV); huEndo180-moFc DI-IV; not shown: murine Fc domain
T5 sequence: T1 sequence
Briefly: ELISA, immobilized huEndo180-moFc.

B1: Human IgG1 G7V with a wildtype γ1 heavy chain (antibody, V domains shown)
VH: EVQLVESGGGLVKPGGSLRLSCAASGFTFSSYSMNWVRQAPGKGLEWVANIKPDGSERHSVDSVKGRFTISRDNSKNSLYLQMNSLRAEDTAVYYCARPGAGRLDYWGQGTLVTVSS
VL: SSELTQDPAVSVALGQTVRITCQGDSLRSYYASWYQQKPGQAPVLVVYGKNNRPSGIPDRFSGSSSGNTASLTITGAQAEDEADYYCNSRDSSGNPWAFGGGTKVTVLG
notes: Naked antibody, made in HEK293-6E (lab scale) or CHO (1 L scale); also called IgG G7V; OMTX007-G7V
As for B1, the EC50 is 4.7 nM in assay [1], 0.4 nM in assay [2], 1.5 nM in assay [3] and 0.4 nM in assay [6]. The binding result in assay [4] and in assay [5] was “no binding (tested: titrated from 0.1 pM to 100 nM)” each time.
